The source of these data is US9618524B2, “Method, composition, isolation and identification of a plaque particle and related biomarker” (Plaxgen Inc., priority 2012, dated 2017).

B1: Serpin B12 (protein)
chain: MDSLVTANTKFCFDLFQEIGKDDRHKNIFFSPLSLSAALGMVRLGARSDSAHQIDEVLHFNEFSQNESKEPDPCLKSNKQKAGSLNNESGLVSCYFGQLLSKLDRIKTDYTLSIANRLYGEQEFPICQEYLDGVIQFYHTTIESVDFQKNPEKSRQEINFWVECQSQGKIKELFSKDAINAETVLVLVNAVYFKAKWETYFDHENTVDAPFCLNANENKSVKMMTQKGLYRIGFIEEVKAQILEMRYTKGKLSMFVLLPSHSKDNLKGLEELERKITYEKMVAWSSSENMSEESVVLSFPRFTLEDSYDLNSILQDMGITDIFDETRADLTGISPSPNLYLSKIIHKTFVEVDENGTQAAAATGAVVSERSLRSWVEFNANHPFLFFIRHNKTQTILFYGRVCSP
B2: Carboxypeptidase N catalytic chain (protein)
chain: VTFRHHRYDDLVRTLYKVQNECPGITRVYSIGRSVEGRHLYVLEFSDHPGIHEPLEPEVKYVGNMHGNEALGRELMLQLSEFLCEEFRNRNQRIVQLIQDTRIHILPSMNPDGYEVAAAQGPNKPGYLVGRNNANGVDLNRNFPDLNTYIYYNEKYGGPNHHLPLPDNWKSQVEPETRAVIRWMHSFNFVLSANLHGGAVVANYPYDKSFEHRVRGVRRTASTPTPDDKLFQKLAKVYSYAHGWMFQGWNCGDYFPDGITNGASWYSLSKGMQDFNYLHTNCFEITLELSCDKFPPEEELQREWLGNREALIQFLEQVHQGIKGMVLDENYNNLANAVISVSGINHDVTSGDHGDYFRLLLPGIYTVSATAPGYDPETVTVTVGPAEPTLVNFHLKRSIPQVSPVRRAPSRRHGVRAKVQPQARKKEMEMRQLQRGPA
B3: Selenoprotein P (protein)
chain: ESQDQSSLCKQPPAWSIRDQDPMLNSNGSVTVVALLQASUYLCILQASKLEDLRVKLKKEGYSNISYIVVNHQGISSRLKYTHLKNKVSEHIPVYQQEENQTDVWTLLNGSKDDFLIYDRCGRLVYHLGLPFSFLTFPYVEEAIKIAYCEKKCGNCSLTTLKDEDFCKRVSLATVDKTVETPSPHYHHEHHHNHGHQHLGSSELSENQQPGAPNAPTHPAPPGLHHHHKHKGQHRQGHPENRDMPASEDLQDLQKKLCRKRCINQLLCKLPTDSELAPRSUCCHCRHLIFEKTGSAITUQCKENLPSLCSUQGLRAEENITESCQURLPPAAUQISQQLIPTEASASURUKNQAKKUEUPSN
B4: Peroxiredoxin-1 (protein)
chain: SSGNAKIGHPAPNFKATAVMPDGQFKDISLSDYKGKYVVFFFYPLDFTFVCPTEIIAFSDRAEEFKKLNCQVIGASVDSHFCHLAWVNTPKKQGGLGPMNIPLVSDPKRTIAQDYGVLKADEGISFRGLFIIDDKGILRQITVNDLPVGRSVDETLRLVQAFQFTDKHGEVCPAGWKPGSDTIKPDVQKSKEYFSKQK
B5: Isoform 2 of Nucleophosmin (protein)
chain: MEDSMDMDMSPLRPQNYLFGCELKADKDYHFKVDNDENEHQLSLRTVSLGAGAKDELHIVEAEAMNYEGSPIKVTLATLKMSVQPTVSLGGFEITPPVVLRLKCGSGPVHISGQHLVAVEEDAESEDEEEEDVKLLSISGKRSAPGGGSKVPQKKVKLAADEDDDDDDEEDDDEDDDDDDFDDEEAEEKAPVKKGQESFKKQEKTPKTPKGPSSVEDIKAKMQASIEKGGSLPKVEAKFINYVKNCFRMTDQEAIQDLWQWRKSL
B6: Dermcidin (protein)
chain: YDPEAASAPGSGNPCHEASAAQKENAGEDPGLARQAPKPRKQRSSLLEKGLDGAKKAVGGLGKLGKDAVEDLESVGKGAVHDVKDVLDSVL
B7: Guanine deaminase (protein)
chain: MCAAQMPPLAHIFRGTFVHSTWTCPMEVLRDHLLGVSDSGKIVFLEEASQQEKLAKEWCFKPCEIRELSHHEFFMPGLVDTHIHASQYSFAGSSIDLPLLEWLTKYTFPAEHRFQNIDFAEEVYTRVVRRTLKNGTTTACYFATIHTDSSLLLADITDKFGQRAFVGKVCMDLNDTFPEYKETTEESIKETERFVSEMLQKNYSRVKPIVTPRFSLSCSETLMGELGNIAKTRDLHIQSHISENRDEVEAVKNLYPSYKNYTSVYDKNNLLTNKTVMAHGCYLSAEELNVFHERGASIAHCPNSNLSLSSGFLNVLEVLKHEVKIGLGTDVAGGYSYSMLDAIRRAVMVSNILLINKVNEKSLTLKEVFRLATLGGSQALGLDGEIGNFEVGKEFDAILINPKASDSPIDLFYGDFFGDISEAVIQKFLYLGDDRNIEEVYVGGKQVVPFSSSVKETIHLPASSPHPPPFP

One assay concerns the target T1, Abeta-42 plaque particles (Homo sapiens, UniProt P05067).
T1 construct: Abeta 1-42
Description: Mass spectroscopy proteomics, semi-quantitative binding affinity of serum proteins (plaqueproteome, Table 2). Conditions: higher number = stronger affinity. The method, boiled down:
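AD patient serum or plasma (50% in PBS) was incubated with Abeta-42 aggregates (30 μg) for 1 h at 37 °C, then stained with Thioflavin S for 30 min. Labeled particles were FACS-sorted, trypsin/Lys-C digested overnight and analyzed by MS/MS. Sequest searched human UniProt; Scaffold/Protein Prophet validated the identifications.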
As to B1, the “Semi-quantitative analysis of proteins binding to different plaque particles: Abeta-42” value is 2.

B2: the “Semi-quantitative analysis of proteins binding to different plaque particles: Abeta-42” value is on record as 0.

Turning to B3, the “Semi-quantitative analysis of proteins binding to different plaque particles: Abeta-42” value is recorded as 0.

Regarding B4, the “Semi-quantitative analysis of proteins binding to different plaque particles: Abeta-42” value was determined as 5.

Consider B5, for which the “Semi-quantitative analysis of proteins binding to different plaque particles: Abeta-42” value stood at 4.

Turning to B6, the “Semi-quantitative analysis of proteins binding to different plaque particles: Abeta-42” value was 2.

In the case of B7, the “Semi-quantitative analysis of proteins binding to different plaque particles: Abeta-42” value came out at 5.

In another assay the test system is High Density cholesterol (Chl Large) plaque particles. The assay is described as above. The arrangement: species or system human. Conditions: higher number = stronger affinity. In short, it runs like this:
(§1)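 Proteins bound to flow-sorted cholesterol plaque particles (large/high-density or small/low-density gates) were identified by LC-MS/MS after trypsin digestion. Particles were formed from 50% atherosclerotic serum or plasma with 30 μg cholesterol aggregates, 1 h, 37 °C. Sequest human database search; Scaffold validation.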
On to B1, for which the “Semi-quantitative analysis of proteins binding to different plaque particles: Chl Large” value stood at 0.

Consider B2, for which the “Semi-quantitative analysis of proteins binding to different plaque particles: Chl Large” value is listed as 0.

As to B3, the “Semi-quantitative analysis of proteins binding to different plaque particles: Chl Large” value was 0.

Turning to B4, the “Semi-quantitative analysis of proteins binding to different plaque particles: Chl Large” value was found to be 0.

Consider B5, for which the “Semi-quantitative analysis of proteins binding to different plaque particles: Chl Large” value worked out at 0.

As to B6, the “Semi-quantitative analysis of proteins binding to different plaque particles: Chl Large” value is given as 0.

Take B7: the “Semi-quantitative analysis of proteins binding to different plaque particles: Chl Large” value came out at 0.

The next assay deals with Low density cholesterol (Chl small) plaque particles. The description is as above. The arrangement: species or system human. Conditions: higher number = stronger affinity. The method, boiled down:
as §1
Regarding B1, the “Semi-quantitative analysis of proteins binding to different plaque particles: Chl small” value is reported as 0.

B2: the “Semi-quantitative analysis of proteins binding to different plaque particles: Chl small” value amounted to 0.

With B3, the “Semi-quantitative analysis of proteins binding to different plaque particles: Chl small” value was 0.

For B4, the “Semi-quantitative analysis of proteins binding to different plaque particles: Chl small” value was 0.

With B5, the “Semi-quantitative analysis of proteins binding to different plaque particles: Chl small” value is listed as 0.

For the molecule B6, the “Semi-quantitative analysis of proteins binding to different plaque particles: Chl small” value is recorded as 0.

In the case of B7, the “Semi-quantitative analysis of proteins binding to different plaque particles: Chl small” value is recorded as 0.

A further assay deals with T2, alpha-synuclein plaque particles (Homo sapiens, UniProt P37840).
T2 construct: 140 amino acids polypeptide
Described as above. Conditions: higher number = stronger affinity. In short, it runs like this:
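AD-subject plasma or serum (800 μL of 50%) mixed with 30 μg preformed alpha-synuclein aggregates for 1 h at 37 °C; Thioflavin S-positive particles isolated by flow sorting. After reduction, acrylamide alkylation and overnight tryptic digestion, serum proteins identified by MS/MS with Sequest and Scaffold.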
As to B1, the “Semi-quantitative analysis of proteins binding to different plaque particles: Synuclein” value was 0.

With B2, the “Semi-quantitative analysis of proteins binding to different plaque particles: Synuclein” value is 0.

Turning to B3, the “Semi-quantitative analysis of proteins binding to different plaque particles: Synuclein” value was determined as 1.

Turning to B4, the “Semi-quantitative analysis of proteins binding to different plaque particles: Synuclein” value came out at 0.

For B5, the “Semi-quantitative analysis of proteins binding to different plaque particles: Synuclein” value turned out to be 0.

Turning to B6, the “Semi-quantitative analysis of proteins binding to different plaque particles: Synuclein” value is 0.

As to B7, the “Semi-quantitative analysis of proteins binding to different plaque particles: Synuclein” value is on record as 0.

The test system of a further assay is Tau plaque particles. The assay is described as above. Also on record: species or system human. Conditions: higher number = stronger affinity. In short, it runs like this:
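Synthetic Tau-74 and Tau-275 peptides (1 mg/mL PBS, 37° C, 2 h) aggregated; 30 μg aggregates incubated with 50% serum/plasma 1 h at 37° C, stained with Thioflavin S, and plaque particles sorted by flow cytometry. Bound proteins trypsin-digested and identified by MS/MS against human UniProt.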
In the case of B1, the “Semi-quantitative analysis of proteins binding to different plaque particles: Tau” value stood at 0.

As for B2, the “Semi-quantitative analysis of proteins binding to different plaque particles: Tau” value is given as 1.

Take B3: the “Semi-quantitative analysis of proteins binding to different plaque particles: Tau” value was 0.

As to B4, the “Semi-quantitative analysis of proteins binding to different plaque particles: Tau” value turned out to be 0.

In the case of B5, the “Semi-quantitative analysis of proteins binding to different plaque particles: Tau” value was 0.

Regarding B6, the “Semi-quantitative analysis of proteins binding to different plaque particles: Tau” value is recorded as 0.

Turning to B7, the “Semi-quantitative analysis of proteins binding to different plaque particles: Tau” value stood at 0.
